Patent US20220153854A1 (Ablynx, published 2022)
Substitutions are numbered along the chain they refer to.

Key:
[1] = molecular target: T1, human OX40L (human, UniProt P23510 51-183); experiment: cell-based or functional assay
T1 sequence (looked up): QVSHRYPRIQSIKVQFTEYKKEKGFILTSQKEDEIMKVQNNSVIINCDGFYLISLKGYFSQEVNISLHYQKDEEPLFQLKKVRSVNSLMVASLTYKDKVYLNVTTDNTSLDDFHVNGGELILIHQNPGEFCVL

[2] = molecular target: T2, human IL-13 (human, UniProt P35225 35-146, limits assumed); experiment: cell-based or functional assay
[3] = molecular target: T3, mouse serum albumin (mouse, UniProt P07724 25-608); experiment: Gyrolab in-solution affinity, 2 h incubation; 95% CI 101-117 nM
T3 construct: also called mouse SA

[4] = molecular target: T4, human serum albumin (human, UniProt P02768 25-609); experiment: Gyrolab in-solution affinity, 2 h incubation; 95% CI 7.7-9.0 nM
T4 construct: also called HSA; HAS
Method: (§1) Under receptor-controlled measurements a serial dilution of OX40L (ranging from 1.3 μM-0.031 μM), IL-13 (ranging from 0.1 μM-0.25 fM), or serum albumin (ranging from 100 μM-3.2 μM) and a fixed amount of ISVD construct F027100187 (5 nM in case of OX40L, […] in case of IL-13 and 30 nM in case of HSA and cyno SA) were mixed to allow interaction and incubated for either 24 or 48 hours (in case of OX40L and IL-13) or 2 hours (in case of serum albumin) to reach equilibrium.
(§2) Biotinylated human OX40L/IL-13/serum albumin was captured in the microstructures of a Gyrolab Bioaffy 1000 CD, which contains columns of beads and was used as a molecular probe to capture free F027100187 from the equilibrated solution. The mixture of OX40L/IL13/serum albumin and F027100187 (containing free OX40UIL-13/serum albumin, free F027100187 and OX40L/IL13/serum albumin—F027100187 complexes) was allowed to flow through the beads, and a small percentage of free F027100187 was captured, which is proportional to the free ISVD construct concentration. A fluorescently labeled anti-ISVD antibody, ABH0086-Alexa647, was then injected to label any captured F027100187 and after rinsing away excess of fluorescent probe, the change in fluorescence was determined. Fitting of the dilution series was done using Gyrolab Analysis software, where KD- and receptor-controlled curves were analyzed to determine the KD value.

[5] = molecular target: T5, cyno serum albumin (cynomolgus monkey); experiment: Gyrolab in-solution affinity, 2 h incubation; 95% CI 8.3-10.9 nM
T5 construct: also called cyno SA; cynomolgus monkey serum albumin
Method: as §1, §2

[6] = molecular target: T5, cyno serum albumin; experiment: Gyrolab in-solution affinity, 2 h incubation; 95% CI 9.7-10.7 nM
Method: as §1, §2

[7] = molecular target: T6, cyno OX40L (cynomolgus monkey, UniProt G7NVH7 51-183); experiment: Gyrolab in-solution affinity, 24 h incubation; 95% CI 101-156 pM
T6 construct: also called cyOX40L; cynomolgus monkey OX40L
T6 sequence: T1 sequence (looked up) with R5Q, K23E
Method: as §1, §2

[8] = molecular target: T1, human OX40L; experiment: Gyrolab in-solution affinity, 24 h incubation; 95% CI 108-141 pM
Method: as §1, §2

[9] = molecular target: T6, cyno OX40L; experiment: Gyrolab in-solution affinity, 24 h incubation; 95% CI 174-218 pM
Method: as §1, §2

[10] = molecular target: T2, human IL-13; experiment: Gyrolab in-solution affinity, 48 h incubation; 95% CI 3.4-7.1 pM
Method: as §1, §2

[11] = molecular target: T7, cyno IL-13 (cynomolgus monkey, UniProt Q0PW92 21-132); experiment: Gyrolab in-solution affinity, 48 h incubation; 95% CI 5.8-7.5 pM
T7 construct: also called cynomolgus monkey IL-13
Method: as §1, §2

[12] = molecular target: T2, human IL-13; experiment: Gyrolab in-solution affinity, 48 h incubation; 95% CI 6.4-9.1 pM
Method: as §1, §2

[13] = molecular target: T7, cyno IL-13; experiment: Gyrolab in-solution affinity, 48 h incubation; 95% CI 7.0-9.3 pM
Method: as §1, §2

[14] = molecular target: T2, human IL-13; experiment: Gyrolab in-solution affinity, 48 h incubation; 95% CI 3.8-11.5 pM
Method: as §1, §2

[15] = molecular target: T8, rhesus IL-13 (rhesus monkey, UniProt Q864V6 19-132, limits assumed); experiment: Gyrolab in-solution affinity, 48 h incubation; 95% CI 6.3-49.5 pM
T8 construct: also called rhesus monkey IL-13
Method: as §1, §2

[16] = molecular target: T8, rhesus IL-13; experiment: Gyrolab in-solution affinity, 48 h incubation; 95% CI 6.8-39.6 pM
Method: as §1, §2

[17] = molecular target: T8, rhesus IL-13; experiment: Gyrolab in-solution affinity, 48 h incubation; 95% CI 9.0-49.5 pM
Method: as §1, §2

[18] = molecular target: T2, human IL-13; experiment: flow cytometry on CHO-KI cells expressing human OX40L loaded with 100 nM F027100187, dilution series of soluble human IL-13 in the presence of 30 uM HSA (bridging / simultaneous binding; x axis printed as 'Concentration human IL-13-Fc (M)', text says biotinylated IL-13)
Method: Using flow cytometry, it was determined whether ISVD construct F0271000187 can bind simultaneously to recombinant soluble hIL-13 and cell membrane bound hOX40L. […] Subsequently the mixture was incubated with a dilution series of biotinylated IL-13 starting from 500 nM down to […], and incubated for 30 min at 4° C., in the presence of 30 μM HSA. Cells were washed 3 times and subsequently incubated with PE-labelled […] for 30 min at 4° C., washed again. Samples were washed and resuspended in FACS Buffer (D-PBS with 10% FBS and 0.05% sodium azide supplemented with 5 nM TOPRO3). Cell suspensions were then analyzed on a iQuescreener.

T8 sequence (Q864V6 19-132 limits assumed): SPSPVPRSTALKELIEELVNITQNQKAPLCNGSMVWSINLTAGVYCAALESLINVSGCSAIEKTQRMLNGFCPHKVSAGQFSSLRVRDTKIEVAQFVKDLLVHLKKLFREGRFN
T2 sequence (P35225 35-146 limits assumed): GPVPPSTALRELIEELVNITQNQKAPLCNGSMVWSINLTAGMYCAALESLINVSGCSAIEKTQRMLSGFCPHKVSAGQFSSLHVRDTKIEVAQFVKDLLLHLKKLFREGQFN
T5 sequence (A2V9Z4 25-608): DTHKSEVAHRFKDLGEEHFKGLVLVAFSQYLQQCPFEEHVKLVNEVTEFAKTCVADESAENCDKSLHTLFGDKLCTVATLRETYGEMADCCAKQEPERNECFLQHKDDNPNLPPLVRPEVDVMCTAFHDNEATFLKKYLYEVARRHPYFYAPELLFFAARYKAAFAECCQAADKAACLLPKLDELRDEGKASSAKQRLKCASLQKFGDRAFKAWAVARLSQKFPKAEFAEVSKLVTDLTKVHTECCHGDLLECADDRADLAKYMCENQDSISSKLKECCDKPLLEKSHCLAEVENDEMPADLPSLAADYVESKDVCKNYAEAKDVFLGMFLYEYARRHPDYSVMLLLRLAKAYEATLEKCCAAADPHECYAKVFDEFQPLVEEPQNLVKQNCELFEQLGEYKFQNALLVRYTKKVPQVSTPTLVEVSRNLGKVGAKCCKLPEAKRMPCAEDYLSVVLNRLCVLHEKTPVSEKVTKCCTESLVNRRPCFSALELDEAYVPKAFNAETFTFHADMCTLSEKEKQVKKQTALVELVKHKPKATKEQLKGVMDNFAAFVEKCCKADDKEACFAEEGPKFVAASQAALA
T7 sequence (Q0PW92 entry or part of it): as the sequence (P35225 35-146 limits assumed) above, with G1S, R10K, M42V, S67N, H83R, L100V counted along it
T4 sequence (P02768 25-609 limits assumed): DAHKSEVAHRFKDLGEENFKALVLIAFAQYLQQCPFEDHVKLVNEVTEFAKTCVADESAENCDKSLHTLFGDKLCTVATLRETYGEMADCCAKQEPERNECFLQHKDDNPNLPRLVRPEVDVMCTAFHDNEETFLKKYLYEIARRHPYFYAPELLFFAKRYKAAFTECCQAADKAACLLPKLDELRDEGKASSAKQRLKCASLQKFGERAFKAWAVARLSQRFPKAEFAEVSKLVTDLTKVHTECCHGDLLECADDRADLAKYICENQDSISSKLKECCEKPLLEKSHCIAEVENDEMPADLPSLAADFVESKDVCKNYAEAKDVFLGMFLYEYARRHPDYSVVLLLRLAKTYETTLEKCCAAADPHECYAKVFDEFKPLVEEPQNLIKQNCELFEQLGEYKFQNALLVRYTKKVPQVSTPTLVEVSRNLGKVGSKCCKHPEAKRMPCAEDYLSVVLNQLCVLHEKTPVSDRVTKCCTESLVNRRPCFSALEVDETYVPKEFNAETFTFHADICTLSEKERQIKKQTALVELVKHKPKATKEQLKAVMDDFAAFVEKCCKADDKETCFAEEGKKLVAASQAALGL

B1: ISVD construct F027100187 (other)
chain: DVQLVESGGGVVQPGGSLRLSCAASRSIGRYDRMGWYRHRPGEPRELVATITGGSSINYGDSVKGRFTISIDNSKNTVYLQMNSLRPEDTALYYCNFNKYQISRDTWGQGTLVTVSSGGGGSGGGSEVQLVESGGGVVQPGGSLRLSCAASGRTFSSYRMGWFRQAPGKEREFVAALSGDGYSTYTANSVKGRFTISRDNSKNTVYLQMNSLRPEDTALYYCAAKLQYVSGWSYDYPYWGQGTLVTVSSGGGGSGGGSEVQLVESGGGVVQPGGSLRLSCAASGFTFRSFGMSWVRQAPGKGPEWVSSISGSGSDTLYADSVKGRFTISRDNSKNTLYLQMNSLRPEDTALYYCTIGGSLSRSSQGTLVTVSSGGGGSGGGSEVQLVESGGGVVQPGGSLRLSCAASGFTFNNYAMKWVRQAPGKGLEWVSSITTGGGSTDYADSVKGRFTISRDNSKNTLYLQMNSLRPEDTALYYCANVPFGYYSEHFSGLSFDYRGQGTLVTVSSA
notes: Tetravalent, trispecific single-chain construct of four VHH (ISVD) domains: one against OX40L, two against IL-13, one against serum albumin; also called F0271000187; F27100187
B1 was tested. Which “IL-5 IC50 (nM), triculture assay” value [1] did it give?
Its value is 1 nM.

What about the “CCL26 IC50 (pM), triculture assay” value [2] of the same binder?
The value was 40.7 pM.

What about the Kd [3] of the same binder?
The Kd was 109 nM.

And the Kd [4]?
The Kd was 8.3 nM.

And the Kd [5]?
Its Kd is 9.6 nM.

What about the Kd [6] of the same binder?
Its Kd is 10.2 nM.

And the Kd [7]?
The Kd was 0.128 nM.

What about the Kd [8] of the same binder?
The Kd was 0.125 nM.

And the Kd [9]?
Its Kd is 0.196 nM.

What about the Kd [10] of the same binder?
Its Kd is 0.0053 nM.

And the Kd [11]?
The Kd was 0.0067 nM.

What about the Kd [12] of the same binder?
The Kd was 0.0078 nM.

And the Kd [13]?
Its Kd is 0.0082 nM.

And the Kd [14]?
Its Kd is 0.0076 nM.

What about the Kd [15] of the same binder?
The Kd was 0.0141 nM.

What about the Kd [16] of the same binder?
The Kd was 0.0232 nM.

And the Kd [17]?
Its Kd is 0.0293 nM.

And the “EC50 (read off the curve)” value [18]?
The value was ~20 nM.
